This note sets out measurements from patent US20110123549A1 (KALOBIOS PHARMACEUTICALS, published 2011).

The target in assay [1] is T1, EphA3 expressed on the surface of B16 mouse melanoma cells (mouse, UniProt P29319 21-983).
T1 construct: whole, on cells; Endogenous EphA3 of a tumor cell line known to express EphA3; also called B16-F10
T1 sequence (looked up): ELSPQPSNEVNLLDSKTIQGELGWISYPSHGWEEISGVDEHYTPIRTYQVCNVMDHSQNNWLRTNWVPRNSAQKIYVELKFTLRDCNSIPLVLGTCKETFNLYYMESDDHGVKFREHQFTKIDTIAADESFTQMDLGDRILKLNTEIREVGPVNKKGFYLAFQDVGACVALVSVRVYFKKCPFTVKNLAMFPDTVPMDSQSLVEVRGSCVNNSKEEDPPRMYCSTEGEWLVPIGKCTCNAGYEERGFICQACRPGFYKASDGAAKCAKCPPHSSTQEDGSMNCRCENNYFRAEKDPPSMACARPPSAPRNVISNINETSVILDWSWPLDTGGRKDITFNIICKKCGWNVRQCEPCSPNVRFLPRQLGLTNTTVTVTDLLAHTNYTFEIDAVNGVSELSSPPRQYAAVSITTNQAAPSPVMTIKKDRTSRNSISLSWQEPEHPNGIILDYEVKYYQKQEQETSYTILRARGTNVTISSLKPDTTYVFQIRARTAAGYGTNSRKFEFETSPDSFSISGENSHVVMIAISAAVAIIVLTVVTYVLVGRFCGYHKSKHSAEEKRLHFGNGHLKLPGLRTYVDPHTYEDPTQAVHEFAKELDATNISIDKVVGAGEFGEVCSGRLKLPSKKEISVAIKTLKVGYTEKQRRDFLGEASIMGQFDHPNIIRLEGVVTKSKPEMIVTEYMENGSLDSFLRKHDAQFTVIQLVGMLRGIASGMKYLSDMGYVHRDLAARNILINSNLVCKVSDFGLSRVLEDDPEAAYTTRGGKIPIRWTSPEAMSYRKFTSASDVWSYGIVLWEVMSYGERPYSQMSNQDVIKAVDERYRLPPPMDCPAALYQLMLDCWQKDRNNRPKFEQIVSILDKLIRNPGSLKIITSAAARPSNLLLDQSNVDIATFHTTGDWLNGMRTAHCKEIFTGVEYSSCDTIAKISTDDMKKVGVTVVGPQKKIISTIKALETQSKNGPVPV
Put plainly: flow cytometry on live B16 cells, 5 ug/ml IgG, anti-human IgG phycoerythrin conjugate [B16]. The text has this: (§1) B16, SKme128, and LnCAP cells were blocked with 2% BSA and rat IgG and probed with engineered anti-EphA3 IgG, chimeric IIIA4 IgG or an isotype control IgG. Bound antibody was detected by an anti-human IgG Phycoerythrin conjugate using a Facs Caliber flow cytometry (BD). Dead cells were excluded by propidium iodide staining For each graph, the control antibody profile is the left-most curve shown in the graph.
(§2) Typically, 3×10⁶ cells of SKme128, LnCAP and B16-F10 were collected by centrifugation at 3000 rpm for 3 minutes. Media were removed and the cells blocked with 2% BSA in PBS for 30 minutes at 4° C. followed by a second block with 10 μg/ml rat IgG for 30 minutes at 4° C. Cells were pelleted, re-suspended in 1.5 ml PBS and divided into 500 μl aliquots. Each aliquot was probed separately with 5 μg/ml of control IgG, humaneered IgG or chimeric IIIA4 IgG for 45 minutes at 4° C. The samples were washed once in PBS and anti-human IgG-phycoerythrin-conjugate was added. After 45 minutes, cells were washed once, re-suspended in PBS and analyzed by flow cytometry using a FACS Caliber flow cytometery. Propidium iodide was added just prior to analysis to exclude dead cells.
(§3) The exemplary engineered antibody was also tested for binding to EphA3 expressed on the surface of live cells. […] Bound antibody was detected using flow cytometry by an anti-human IgG phycoerythrin conjugate (FIG. 5). […]

The target of assay [2] is T2, EphA3-Fc recombinant fusion protein (UniProt P29320 21-541, limits assumed).
T2 construct: also called the antigen
T2 sequence (looked up): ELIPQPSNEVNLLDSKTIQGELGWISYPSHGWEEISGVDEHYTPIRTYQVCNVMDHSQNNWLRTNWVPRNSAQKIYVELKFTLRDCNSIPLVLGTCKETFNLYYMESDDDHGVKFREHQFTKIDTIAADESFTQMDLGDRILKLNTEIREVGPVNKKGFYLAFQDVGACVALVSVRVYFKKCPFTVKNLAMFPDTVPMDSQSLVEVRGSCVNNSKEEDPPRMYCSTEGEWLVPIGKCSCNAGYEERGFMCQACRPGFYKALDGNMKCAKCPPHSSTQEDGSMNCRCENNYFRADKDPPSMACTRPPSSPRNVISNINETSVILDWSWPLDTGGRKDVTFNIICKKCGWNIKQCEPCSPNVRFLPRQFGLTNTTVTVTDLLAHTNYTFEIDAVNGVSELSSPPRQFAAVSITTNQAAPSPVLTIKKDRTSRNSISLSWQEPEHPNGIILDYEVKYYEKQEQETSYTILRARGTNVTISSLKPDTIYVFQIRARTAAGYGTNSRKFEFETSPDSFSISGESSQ
As to the kind of experiment: ELISA, plate coated with EphA3-Fc, detection with anti-human kappa chain HRP conjugate, A450. The text has this: A full-length antibody (IgG1κ) was constructed, expressed from CHO cells and purified by Protein A affinity chromatography. ELISA plates were coated with EphA3-Fc and binding of cIIIA4 IgG, an exemplary engineered IgG, and a control IgG1 were compared (FIG. 3). The EC₅₀ in this assay was approximately three-fold lower for the engineered IgG than for the original chimeric antibody.
(In an ELISA, binding on a coated surface is turned into a signal by an enzyme label.)

Assay [3] concerns the target T3, EphA3 expressed on the surface of human cells (SKmel28 human melanoma, LnCAP prostate cancer line, primary … (human, UniProt P29320 21-983)).
T3 construct: whole, on cells; It gives no species for LnCAP, and the leukemia cells come from patients; also called SKme128; primary leukemia cells expressing EphA3
T3 sequence (looked up): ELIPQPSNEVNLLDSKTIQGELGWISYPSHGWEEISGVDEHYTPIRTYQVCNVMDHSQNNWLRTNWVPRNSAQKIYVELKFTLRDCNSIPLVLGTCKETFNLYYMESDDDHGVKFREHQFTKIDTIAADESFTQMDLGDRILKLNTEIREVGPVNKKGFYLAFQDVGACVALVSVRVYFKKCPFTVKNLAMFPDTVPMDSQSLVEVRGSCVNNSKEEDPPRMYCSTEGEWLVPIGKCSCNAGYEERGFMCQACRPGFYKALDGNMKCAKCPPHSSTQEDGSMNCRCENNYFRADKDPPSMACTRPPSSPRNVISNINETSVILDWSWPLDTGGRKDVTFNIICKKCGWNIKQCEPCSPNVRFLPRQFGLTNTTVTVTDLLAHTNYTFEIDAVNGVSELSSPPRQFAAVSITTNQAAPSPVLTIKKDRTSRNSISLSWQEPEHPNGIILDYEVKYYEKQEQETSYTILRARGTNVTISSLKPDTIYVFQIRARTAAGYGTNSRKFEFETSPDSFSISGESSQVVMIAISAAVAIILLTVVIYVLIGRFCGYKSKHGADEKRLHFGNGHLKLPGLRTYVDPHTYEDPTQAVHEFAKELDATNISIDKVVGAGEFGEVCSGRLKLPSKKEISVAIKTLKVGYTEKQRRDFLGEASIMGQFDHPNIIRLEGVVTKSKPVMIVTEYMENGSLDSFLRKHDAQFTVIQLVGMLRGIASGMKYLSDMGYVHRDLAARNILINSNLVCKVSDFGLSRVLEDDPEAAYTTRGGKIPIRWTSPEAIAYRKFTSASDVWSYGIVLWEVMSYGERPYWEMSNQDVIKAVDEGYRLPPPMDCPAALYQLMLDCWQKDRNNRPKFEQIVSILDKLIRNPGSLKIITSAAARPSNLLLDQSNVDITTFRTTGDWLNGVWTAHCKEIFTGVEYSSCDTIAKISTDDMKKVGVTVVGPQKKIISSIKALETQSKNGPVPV
Put plainly: flow cytometry on live SKmel-28 cells, 5 ug/ml IgG, anti-human IgG phycoerythrin conjugate [SKmel-28].
From the text: as §1, §2, §3
Background: In flow cytometry, cells or beads pass a laser one at a time.

Assay [4] concerns the target T2, EphA3-Fc recombinant fusion protein. Put plainly: SPR (Biacore), 25 C, low density surface, 1:1 model. As for the experimental part: (§4) Binding kinetics of two engineered Fabs and reference Fab FA106 were analyzed using a Biacore. The three Fabs were diluted from the starting concentration of 500 nM to 100 nM and further tested in a three-fold dilution series using PBS, pH 7.4 with 0.005% Tween-20 and 0.1 mg/ml BSA. Each of the five concentrations was tested three times over the three different density surfaces. Assays were run at 25° C. The response data from each surface were fit to a 1:1 interaction model.
In general terms: SPR reads the build-up and loss of mass on a sensor chip optically.

The target is the same in assay [5]. As to the kind of experiment: SPR (Biacore), 25 C, high density surface, 1:1 model. As to the method:
as §4

Assay [6] has the same target. As to the kind of experiment: SPR (Biacore), 25 C, medium density surface, 1:1 model. As to the method:
as §4

The target is the same in assay [7]. As to the kind of experiment: SPR (Biacore), 25 C, average of three surface densities, 1:1 model. As to the method: as §4
Assay [8] has the same target. Put plainly: SPR (Biacore), 25 C, low density surface, 1:1 model; low chip density. As for the experimental part: as §4
Assay [9] has the same target. As to the kind of experiment: SPR (Biacore), 25 C, high density surface, 1:1 model; high chip density. As for the experimental part:
as §4

For assay [10] the target is unchanged. As to the kind of experiment: SPR (Biacore), 25 C, medium density surface, 1:1 model; medium chip density. As for the experimental part: as §4

B1: Chimeric IIIA4 IgG (antibody, V domains shown)
VH: EVKLEESGAELVKPGSSVKLSCKASGYNFTSYWINWVRLRPGQGLEWIGDIYPGSGNTNYDEKFKRKATLTVDTSSSTAYMQLSSLASEDSALYYCTRSGYYEDFDSWGQGTTLIVSS
VL: DIVLTQTPSSLSASLEERVSLTCRASQEISGYLGWLQQKPDGTIKRLIYAASTLDSGVPKKFSGNRSGSEYSLTISSLESEDFADYYCVQYANYPYTFGGGTKLEIK
notes: also called original chimeric antibody
With B1, the binding result in assay [1] and in assay [3] was “binds” each time. In addition, the “EC50 (read off the curve)” value in [2] is around 0.2 µg/mL.

B2: optimized reference Fab FA106 (Fab, V domains shown)
VH: EVKLEESGAELVKPGSSVKLSCKASGYNFTSYWINWVRLRPGQGLEWIGDIYPGSGNTNYDEKFKRKATLTVDTSSSTAYMQLSSLASEDTAVYYCARSGYYEDFDSWGQGTTVTVSS
VL: DIVLTQTPSSLSASLEERVSLTCRASQEISGYLGWLQQKPDGTIKRLIYAASTLDSGVPKKFSGNRSGSEYSLTISSLESEDFATYYCVQYANYPYTFGQGTKLEIK
notes: Fab derived from FA4 with several framework residues changed to human germ-line; Expressed in E. coli
Consider B2, for which the Kd in assay [4] worked out at 1.4 nM; in [5] it was 2.06 nM; in assay [6], 2.91 nM; in [7], 2.1 nM. Moreover, the kon is 4.1e+06 M⁻¹ s⁻¹ in assay [4], 1.67e+06 M⁻¹ s⁻¹ in [5], 611000 M⁻¹ s⁻¹ in assay [6] and 2e+06 M⁻¹ s⁻¹ in [7]. The koff in [7] is 0.003 s⁻¹; in assay [8], 0.0058 s⁻¹; in assay [9] it was 0.00345 s⁻¹; in assay [10], 0.00178 s⁻¹.

Usually EC50 (read off the curve) stands for the concentration needed to bring the measured effect to its halfway point. As usually defined, the Kd is a measure of binding affinity in units of concentration. Broadly, the kon is a measure of how fast the partners come together. What is called koff is a measure of how fast the partners let go of each other.
